Laboratory results from publication PMC4457826, “Crystal Structure of USP7 Ubiquitin-like Domains with an ICP0 Peptide Reveals a Novel Mechanism Used by Viral and Cellular Proteins to Target USP7” (PLoS Pathogens, 2015).
Primed or numbered codes have the meaning given here. No end group written: not given here. FITC′ = fluorescein isothiocyanate label; GST = glutathione S-transferase fusion

Tests used:
[1] = molecular target: T1, USP7-CTD (535-1102) (human, UniProt Q93009 535-1102); test: fluorescence polarisation; USP7 proteins titrated (0 to 200 μM) into 40 nM N-terminally FITC-labeled peptide; 0.01% Triton X-100, 150 mM NaCl, 20 mM Tris pH 7.5; settings: both partners purified
T1 construct: USP7, human, residues 535-1102 (spacer helix and five Ubl domains); Cloned in p15TV-L; also called WT USP7-CTD; C-terminal domain; source: E. coli BL21(DE3)mgk, purified (nickel-NTA, SEC)

[2] = molecular target: T1, USP7-CTD (535-1102); test: pull-down; GST pull-down: 250 μg USP7 protein with 250 μg GST fusion in 50 mM Tris pH 8.0, 100 mM NaCl, 5 mM DTT, 5% glycerol, on glutathione-sepharose overnight at 4°C; eluted with 30 mM reduced glutathione; Coomassie stained gel; settings: both partners purified
[3] = molecular target: T1, USP7-CTD (535-1102); test: fluorescence polarisation; competition: fixed USP7-CTD (8 μM), 40 nM FITC-UHRF1, increasing unlabeled ICP0 peptide (0 to 2500 μM); settings: both partners purified
[4] = molecular target: T2, myc-tagged USP7 D762R/D764R (human, UniProt Q93009 1-1102, D762R/D764R | D762R/D764R); test: co-IP; 293T cells transfected with myc-USP7 (with or without ICP0); RIPA lysate, anti-myc antibody and protein A/G agarose; Western blot for ICP0, GMPS or UHRF1; settings: partners not purified
T2 construct: USP7, human, full length with D762R and D764R, sub-cloned into pCANmycUSP7; also called MRGR; D762R/D764R (MRGR) USP7; source: 293T cells, transfected (pCANmycUSP7), in lysate

[5] = molecular target: T3, full length USP7 (human, UniProt Q93009 1-1102); test: pull-down; GST pull-down: 250 μg USP7 protein with 250 μg GST fusion in 50 mM Tris pH 8.0, 100 mM NaCl, 5 mM DTT, 5% glycerol, on glutathione-sepharose overnight at 4°C; eluted with 30 mM reduced glutathione; Coomassie stained gel; settings: both partners purified
T3 construct: Ubiquitin specific protease 7 (USP7, HAUSP), human, full length; also called FL-USP7; USP7-FL; source: Sf9 cells, purified (SEC)

[6] = molecular target: T4, USP7 Ubl12 (535-776) (human, UniProt Q93009 535-776); test: as above; settings: both partners purified
T4 construct: USP7, human, residues 535-776; Cloned in p15TV-L; source: E. coli BL21(DE3)mgk, purified (nickel-NTA, SEC)

[7] = molecular target: T5, USP7 Ubl123 (535-889) (human, UniProt Q93009 535-889); test: as above; settings: both partners purified
T5 construct: USP7, human, residues 535-889 (spacer helix 535-560 and Ubl1-3); Cloned in p15TV-L; also called native Ubl123; source: E. coli BL21(DE3)mgk, purified (nickel-NTA, SEC)

[8] = molecular target: T3, full length USP7; test: fluorescence polarisation; USP7 proteins titrated (0 to 200 μM) into 40 nM N-terminally FITC-labeled peptide; 0.01% Triton X-100, 150 mM NaCl, 20 mM Tris pH 7.5; settings: both partners purified
[9] = molecular target: T6, USP7 Ubl123 D764A (human, UniProt Q93009 535-889, D764A); test: as above; settings: both partners purified
T6 construct: USP7, human, residues 535-889 with D764A; Synthesized (Genscript), in pET15b; also called Ubl123 mutant D764A; source: E. coli BL21(DE3)mgk, purified (nickel-NTA, SEC)

[10] = molecular target: T7, USP7 Ubl123 D762A/D764A (human, UniProt Q93009 535-889, D762A/D764A | D762A/D764A); test: as above; settings: both partners purified
T7 construct: USP7, human, residues 535-889 with D762A and D764A; Synthesized (Genscript), in pET15b; also called Ubl123 mutant D762A/D764A; source: E. coli BL21(DE3)mgk, purified (nickel-NTA, SEC)

[11] = molecular target: T5, USP7 Ubl123 (535-889); test: as above; settings: both partners purified
[12] = molecular target: T8, USP7 Ubl123 E759A (human, UniProt Q93009 535-889, E759A); test: as above; settings: both partners purified
T8 construct: USP7, human, residues 535-889 with E759A; Synthesized (Genscript), in pET15b; also called Ubl123 mutant E759A; source: E. coli BL21(DE3)mgk, purified (nickel-NTA, SEC)

[13] = molecular target: T9, USP7 Ubl123 D762A (human, UniProt Q93009 535-889, D762A); test: as above; settings: both partners purified
T9 construct: USP7, human, residues 535-889 with D762A; Synthesized (Genscript), in pET15b; also called Ubl123 mutant D762A; source: E. coli BL21(DE3)mgk, purified (nickel-NTA, SEC)
T9 sequence (Q93009 535-889 D762A): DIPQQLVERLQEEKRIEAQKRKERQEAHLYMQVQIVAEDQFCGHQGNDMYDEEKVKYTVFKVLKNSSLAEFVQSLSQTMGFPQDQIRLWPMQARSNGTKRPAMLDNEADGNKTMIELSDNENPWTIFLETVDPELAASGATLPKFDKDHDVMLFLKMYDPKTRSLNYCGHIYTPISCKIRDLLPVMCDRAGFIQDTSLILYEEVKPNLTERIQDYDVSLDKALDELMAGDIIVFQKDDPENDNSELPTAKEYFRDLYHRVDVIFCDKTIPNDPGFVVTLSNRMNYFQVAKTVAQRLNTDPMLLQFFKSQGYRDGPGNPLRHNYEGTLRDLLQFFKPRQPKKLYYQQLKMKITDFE

T2 sequence (Q93009 whole entry D762R/D764R): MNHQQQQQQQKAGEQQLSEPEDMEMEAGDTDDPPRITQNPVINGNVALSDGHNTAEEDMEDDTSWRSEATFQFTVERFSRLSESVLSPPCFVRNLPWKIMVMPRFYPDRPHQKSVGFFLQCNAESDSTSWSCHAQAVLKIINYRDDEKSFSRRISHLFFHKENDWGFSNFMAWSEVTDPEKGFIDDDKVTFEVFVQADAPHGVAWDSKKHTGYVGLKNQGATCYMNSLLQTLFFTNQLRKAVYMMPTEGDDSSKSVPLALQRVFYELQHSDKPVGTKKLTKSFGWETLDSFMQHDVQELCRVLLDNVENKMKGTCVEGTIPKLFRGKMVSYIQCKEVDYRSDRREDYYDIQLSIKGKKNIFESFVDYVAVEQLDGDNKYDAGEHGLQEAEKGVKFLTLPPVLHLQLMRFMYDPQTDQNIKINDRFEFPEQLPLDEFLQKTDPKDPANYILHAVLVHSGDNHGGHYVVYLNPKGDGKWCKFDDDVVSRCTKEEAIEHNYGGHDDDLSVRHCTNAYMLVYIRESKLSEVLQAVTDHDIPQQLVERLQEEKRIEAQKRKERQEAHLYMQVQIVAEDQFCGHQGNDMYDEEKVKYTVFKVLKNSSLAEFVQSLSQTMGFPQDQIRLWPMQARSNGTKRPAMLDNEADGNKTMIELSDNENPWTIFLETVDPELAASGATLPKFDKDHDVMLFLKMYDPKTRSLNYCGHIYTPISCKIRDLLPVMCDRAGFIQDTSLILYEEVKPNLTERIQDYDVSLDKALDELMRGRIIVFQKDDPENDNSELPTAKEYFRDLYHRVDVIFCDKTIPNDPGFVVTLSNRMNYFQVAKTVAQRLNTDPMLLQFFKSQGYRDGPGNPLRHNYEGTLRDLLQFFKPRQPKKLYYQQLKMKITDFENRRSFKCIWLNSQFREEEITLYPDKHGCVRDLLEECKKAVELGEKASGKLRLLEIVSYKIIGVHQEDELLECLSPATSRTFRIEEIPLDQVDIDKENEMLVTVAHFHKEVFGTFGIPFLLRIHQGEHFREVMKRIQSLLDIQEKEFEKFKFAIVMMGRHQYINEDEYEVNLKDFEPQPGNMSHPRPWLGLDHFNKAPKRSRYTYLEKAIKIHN
T1 sequence (Q93009 535-1102): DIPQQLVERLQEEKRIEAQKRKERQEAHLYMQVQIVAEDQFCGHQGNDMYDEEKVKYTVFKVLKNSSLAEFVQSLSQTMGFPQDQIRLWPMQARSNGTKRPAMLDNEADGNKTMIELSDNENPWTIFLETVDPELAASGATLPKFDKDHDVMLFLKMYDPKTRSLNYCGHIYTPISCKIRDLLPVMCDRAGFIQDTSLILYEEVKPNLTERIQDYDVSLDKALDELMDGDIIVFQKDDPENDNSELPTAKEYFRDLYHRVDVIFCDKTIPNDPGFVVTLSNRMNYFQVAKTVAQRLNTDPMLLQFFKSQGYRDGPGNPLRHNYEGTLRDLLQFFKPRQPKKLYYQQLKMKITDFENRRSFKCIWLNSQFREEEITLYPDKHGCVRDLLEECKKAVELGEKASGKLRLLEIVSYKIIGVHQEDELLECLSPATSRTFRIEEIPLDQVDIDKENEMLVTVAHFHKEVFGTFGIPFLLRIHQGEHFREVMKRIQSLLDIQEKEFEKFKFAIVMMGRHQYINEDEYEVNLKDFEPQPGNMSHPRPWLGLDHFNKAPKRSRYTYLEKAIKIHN
T3 sequence (Q93009 whole entry, the tested form may be a part): as the sequence (Q93009 whole entry D762R/D764R) above, with R762D, R764D counted along it
T5 sequence (Q93009 535-889): as the sequence (Q93009 535-889 D762A) above, with A228D counted along it
T7 sequence (Q93009 535-889 D762A/D764A): as the sequence (Q93009 535-889 D762A) above, with D230A counted along it
T6 sequence (Q93009 535-889 D764A): as the sequence (Q93009 535-889 D762A) above, with A228D, D230A counted along it
T4 sequence (Q93009 535-776): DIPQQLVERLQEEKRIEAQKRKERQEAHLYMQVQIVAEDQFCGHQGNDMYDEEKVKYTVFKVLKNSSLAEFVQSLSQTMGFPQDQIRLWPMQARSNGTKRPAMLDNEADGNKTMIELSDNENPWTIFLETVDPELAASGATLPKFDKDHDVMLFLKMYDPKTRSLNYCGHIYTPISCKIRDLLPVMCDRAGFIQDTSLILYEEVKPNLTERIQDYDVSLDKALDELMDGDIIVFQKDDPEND
T8 sequence (Q93009 535-889 E759A): as the sequence (Q93009 535-889 D762A) above, with E225A, A228D counted along it

B1: FITC-GMPS peptide (peptide)
peptide: {FITC′}-DRTPRKRISKTLN
notes: GMP synthase (GMPS), residues 316-328 ('this GMPS peptide'); also called N-terminal FITC containing GMPS peptide; source: synthetic peptide (CanPeptide)
For B1, the Kd [1] was 32 µM.

B2: GST-ICP0 594-775 (domain or fragment)
chain: AVGALGGRQEETSLGPRAASGPRGPRKCARKTRHAETSGAVPAGGLTRYLPISGVSSVVALSPYVNKTITGDCLPILDMETGNIGAYVVLVDQTGNMATRLRAAVPGWSRRTLLPETAGNHVMPPEYPTAPASEWNSLWMTPVGNMLFDQGTLVGALDFRSLRSRHPWSGEQGASTRDEGKQ
notes: ICP0 of herpes simplex virus 1, residues 594-775; also called longer ICP0 peptide; source: E. coli BL21(DE3), purified (glutathione-sepharose)
B2: binds [2].

B3: GST-GMPS peptide (316-328) (peptide)
chain: {GST}-DRTPRKRISKTLN
notes: GMP synthase (GMPS), residues 316-328; also called WT GST-GMPS; source: E. coli BL21(DE3), purified (glutathione-sepharose)
B3: binds [2].

{FITC′}-TGKGKWKR [FITC-UHRF1 peptide] was tested, and the Kd [1] was 5.6 µM.

With GPRKCARKTRH (not fully specified) [unlabeled ICP0 peptide] the Ki [3] was 20.6 µM.

B4: ICP0 (expressed in 293T cells) (natural protein)
chain: MEPRPGASTRRPEGRPQREPAPDVWVFPCDRDLPDSSDSEAETEVGGRGDADHHDDDSASEADSTDTELFETGLLGPQGVDGGAVSGGSPPREEDPGSCGGAPPREDGGSDEGDVCAVCTDEIAPHLRCDTFPCMHRFCIPCMKTWMQLRNTCPLCNAKLVYLIVGVTPSGSFSTIPIVNDPQTRMEAEEAVRAGTAVDFIWTGNQRFAPRYLTLGGHTVRALSPTHPEPTTDEDDDDLDDADYVPPAPRRTPRAPPRRGAAAPPVTGGASHAAPQPAAARTAPPSAPIGPHGSSNTNTTTNSSGGGGSRQSRAAAPRGASGPSGGVGVGVGVVEAEAGRPRGRTGPLVNRPAPLANNRDPIVISDSPPASPHRPPAAPMPGSAPRPGPPASAAASGPARPRAAVAPCVRAPPPGPGPRAPAPGAEPAARPADARRVPQSHSSLAQAANQEQSLCRARATVARGSGGPGVEGGHGPSRGAAPSGAAPLPSAASVEQEAAVRPRKRRGSGQENPSPQSTRPPLAPAGAKRAATHPPSDSGPGGRGQGGPGTPLTSSAASASSSSASSSSAPTPAGAASSAAGAASSSASASSGGAVGALGGRQEETSLGPRAASGPRGPRKCARKTRHAETSGAVPAGGLTRYLPISGVSSVVALSPYVNKTITGDCLPILDMETGNIGAYVVLVDQTGNMATRLRAAVPGWSRRTLLPETAGNHVMPPEYPTAPASEWNSLWMTPVGNMLFDQGTLVGALDFRSLRSRHPWSGEQGASTRDEGKQ
notes: also called pCI-110 ICP0; source: 293T cells, transfected (pCI-110 ICP0), in lysate
For B4, the “fold decrease of recovery against WT USP7” value [4] was 2 fold.

B5: GST-ICP0 615-629 (peptide)
chain: PRGPRKCARKTRHAE
notes: ICP0 of herpes simplex virus 1, residues 615-629; also called ICP0 peptide 615–629; GST-ICP0 peptide; source: E. coli BL21(DE3), purified (glutathione-sepharose)
B5: binds [5]; binds [2]; binds [6]. B5: binds [7].

B6: GST-ICP0 611-625 (peptide)
chain: AASGPRGPRKCARKT
notes: ICP0 of herpes simplex virus 1, residues 611-625; also called ICP0 region 611–625; source: E. coli BL21(DE3), purified (glutathione-sepharose)
B6: binds [5]; binds [2].

In the case of {FITC′}-GPRKCARKTRH [FITC-labeled ICP0 peptide], the Kd [8] is reported as 3.2 µM, the Kd [9] is reported as > 100 µM and the Kd [10] is reported as > 100 µM. The Kd [11] was 1.6 µM, the Kd [12] was > 100 µM and the Kd [13] was > 100 µM.

B7: endogenous GMPS (natural protein)
chain: not shown
notes: GMP synthase (GMPS), endogenous in 293T cells; also called GMP synthase; source: endogenous, 293T lysate
In the case of B7, the “percent binding relative to recovery with WT USP7” value [4] is reported as 35%.

B8: GST-ICP0 619-633 (peptide)
chain: RKCARKTRHAETSGA
notes: ICP0 of herpes simplex virus 1, residues 619-633; also called ICP0 peptide 619–633; source: E. coli BL21(DE3), purified (glutathione-sepharose)
B8: binds [5]; binds [2].

B9: endogenous UHRF1 (natural protein, human (endogenous in 293T), UniProt Q96T88 1-793, looked up)
chain: MWIQVRTMDGRQTHTVDSLSRLTKVEELRRKIQELFHVEPGLQRLFYRGKQMEDGHTLFDYEVRLNDTIQLLVRQSLVLPHSTKERDSELSDTDSGCCLGQSESDKSSTHGEAAAETDSRPADEDMWDETELGLYKVNEYVDARDTNMGAWFEAQVVRVTRKAPSRDEPCSSTSRPALEEDVIYHVKYDDYPENGVVQMNSRDVRARARTIIKWQDLEVGQVVMLNYNPDNPKERGFWYDAEISRKRETRTARELYANVVLGDDSLNDCRIIFVDEVFKIERPGEGSPMVDNPMRRKSGPSCKHCKDDVNRLCRVCACHLCGGRQDPDKQLMCDECDMAFHIYCLDPPLSSVPSEDEWYCPECRNDASEVVLAGERLRESKKKAKMASATSSSQRDWGKGMACVGRTKECTIVPSNHYGPIPGIPVGTMWRFRVQVSESGVHRPHVAGIHGRSNDGAYSLVLAGGYEDDVDHGNFFTYTGSGGRDLSGNKRTAEQSCDQKLTNTNRALALNCFAPINDQEGAEAKDWRSGKPVRVVRNVKGGKNSKYAPAEGNRYDGIYKVVKYWPEKGKSGFLVWRYLLRRDDDEPGPWTKEGKDRIKKLGLTMQYPEGYLEALANREREKENSKREEEEQQEGGFASPRTGKGKWKRKSAGGGPSRAGSPRRTSKKTKVEPYSLTAQQSSLIREDKSNAKLWNEVLASLKDRPASGSPFQLFLSKVEETFQCICCQELVFRPITTVCQHNVCKDCLDRSFRAQVFSCPACRYDLGRSYAMQVNQPLQTVLNQLFPGYGNGR
notes: UHRF1 (NP95), endogenous in 293T cells; also called NP95; source: endogenous, 293T lysate
In the case of B9, the “percent binding relative to recovery with WT USP7” value [4] is reported as 21%.
